According to patent US6693166 (HONG KONG UNIVERSITY OF SCIENCE AND TECHNOLOGY, dated 2004):

Target: T1, GST-Cdk5.GST-Nck5a complex (Homo sapiens (Human), UniProt Q00535 1-292; Q15078 99-307)
T1 construct: also called Cdk5/Nck5a complex; Cdk5.Nck5a complex
Assay: steady state kinase kinetics with histone H1 peptide as substrate, Dixon plot; noncompetitive with respect to the substrate
Description: Peptide Inhibition of Cdk5 and Cdk2 Kinase Activity—Cdk5 kinase activity was assayed essentially as described previously, except that for each Cdk5 kinase reaction 1 µg of GST-Cdk5 was reconstituted with 2 µg of GST-Nck5a, and 1 µg of GST-Cdk2 was mixed with 3 µg of cyclin A-H6 in Cdk2 assays. The reconstituted complexes were added, in duplicate, to an assay mixture containing 30 mM MOPS, pH 7.4, 10 mM MgCl_2, 40 µM of the histone H1 peptide, 50 µM [γ-^32P]ATP, and various concentrations of various peptides at 30° C. for 30 min before measuring the Cdk5 and Cdk2 kinase activities.
Steady State Kinetic Experiments—All assay conditions were the same as in the inhibition assay described above, except that the reaction time was kept at 15 min so that the product formed was less than 5% of the total substrate concentration used. To determine suitable concentrations of the substrate and the inhibitor for the steady state kinetic experiments, the K_m value of GST-Cdk5.GST-Nck5a complex and a concentration-dependent inhibition profile of the enzyme by the α_N peptide were determined. […]
Kinetic Analysis of Cdk5 Inhibition by the α_N Peptide—We also analyzed the kinetic properties of the α_N peptide with respect to the kinase substrate, the histone H1 peptide.

- Ki: ~25 µM
B1: synthetic 28-residue Nck5a peptide corresponding to Ala146 to Asp173 of Nck5a (peptide)
peptide: ASTSELLRCLGEFLCRRCYRLKHLSPTD
notes: Chemically synthesised (Fmoc), purity above 95%; Gln145 of the recombinant 29-residue fragment was left out; also called αN peptide
